For this assay, the target named is Menveo, Neisseria meningitidis oligosaccharide (A, C, W135, Y) CRM197 conjugate vaccine, without β-glucan … (UniProt P00588 33-567). Put plainly: competitive ELISA, soluble murine Fc-dectin-1a on coated glucan.

B1: soluble murine Fc-dectin-1a receptor (InvivoGen) (Fc fusion)
chain: EYGHNSGRNPEEKDNFLSRNKENHKPTESSLDEKVAPSKASQTTGGFSQPCLPNWIMHGKSCYLFSFSGNSWYGSKRHCSQLGAHLLKIDNSKEFEFIESQTSSHRINAFWIGLSRNQSEGPWFWEDGSAFFPNSFQVRNTAPQESLLHNCVWIHGSEVYNQICNTSSYSICEKEL
For the molecule B1, the binding result is given as “no binding”.

These data come from patent publication US20250186580A1 (TRIDEM BIOSCIENCE, published 2025).
